Experimental data as given in paper PMC4949388 (Brain, 2015).

Key:
[1] = target: CSF BuChE (human (endogenous in CSF)) (UniProt P06276); assay: co-sedimentation
co-sedimentation = target: the molecule itself; assay: co-sedimentation

Row | Molecule | stoichiometry N [1] | stoichiometry N (co-sedimentation)
1 | CSF BuChE (from UniProt P06276 29-602) (enzyme) | 4 | 
2 | highly purified BuChE from human serum (enzyme) EDDIIIATKNGKVRGMNLTVFGGTVTAFLGIPYAQPPLGRLRFKKPQSLTKWSDIWNATKYANSCCQNIDQSFPGFHGSEMWNPNTDLSEDCLYLNVWIPAPKPKNATVLIWIYGGGFQTGTSSLHVYDGKFLARVERVIVVSMNYRVGALGFLALPGNPEAPGNMGLFDQQLALQWVQKNIAAFGGNPKSVTLFGESAGAASVSLHLLSPGSHSLFTRAILQSGSFNAPWAVTSLYEARNRTLNLAKLTGCSRENETEIIKCLRNKDPQEILLNEAFVVPYGTPLSVNFGPTVDGDFLTDMPDILLELGQFKKTQILVGVNKDEGTAFLVYGAPGFSKDNNSIITRKEFQEGLKIFFPGVSEFGKESILFHYTDWVDDQRPENYREALGDVVGDYNFICPALEFTKKFSEWGNNAFFYYFEHRSSKLPWPEWMGVMHGYEIEFVFGLPLERRDNYTKAEEILSRSIVKRWANFAKYGNPNETQNNSTSWPVFKSTEQKYLTLNTESTRIMTKLRAQQCRFWTSFFPKVLEMTGNIDEAEWEWKAGFHRWNNYMMDWKNQFNDYTSKKESCVGL |  | 4
